Measured values from article doi:10.1101/2024.04.02.587325, “Structural characterization of the Pseudomonas Aeruginosa MexR–mexR repressor-operator complex: a small-angle X-ray and neutron scattering perspective”.

Biological target: MexR (Pseudomonas aeruginosa, UniProt P52003)
Assay: ITC; one set of sites; N = 4.0 ± 0.1; dH 122.3 ± 5.2 kJ/mol; ITC: 20 mM NaPO4 pH 7.0, 150 mM NaCl, 5 mM beta-mercaptoethanol, 20 C; SEC of the complex: 20 mM HEPES, 150 mM NaCl, 2 mM TCEP
Settings: protein: recombinant; tags: N-terminal His6-Trx removed by TEV; residual SM; chain copies: 4; blunt

Sequence of MexR (P52003 5-139, tags or fused parts left off): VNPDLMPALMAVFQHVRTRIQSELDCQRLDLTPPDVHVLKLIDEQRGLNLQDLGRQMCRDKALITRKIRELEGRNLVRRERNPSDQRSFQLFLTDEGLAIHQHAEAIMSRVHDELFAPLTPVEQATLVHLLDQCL

B1: 60 bp mexR-mexA operator DNA (PI+PII) (dsDNA)
DNA 1: AAATGTGGTTGATCCAGTCAACTATTTTGCTTATTTTAGTTGACCTTATCAACCTTGTTT
DNA 2: AAACAAGGTTGATAAGGTCAACTAAAATAAGCAAAATAGTTGACTGGATCAACCACATTT
- Kd: 206 ± 52 nM
